B1: Ala-AT; alanine aminotransferase 1 (recombinant) (Arabidopsis thaliana) (protein)
chain: SASDSSSSLPVTLDTINPKVIKCEYAVRGEIVNIAQKLQEDLKTNKDAYPFDEIIYCNIGNPQSLGQQPITFFREVLALCSYTALLDESATHGLFSSDSIERAWKILDQIPGRATGAYSHSQGIKGLRDAIADGIEARDGFPADPNDIFMTDGASPGVHMMMQLLITSEKDGILCPIPQYPLYSASIALHGGTLVPYYLDEASGWGLEISELKKQLEDARSKGITVRALAVINPGNPTGQVLSEENQRDVVKFCKQEGLVLLADEVYQENVYVPDKKFHSFKKVARSMGYGEKDLALVSFQSVSKGYYGECGKRGGYMEVTGFTSDVREQIYKMASVNLCSNISGQILASLIMSPPKPGDDSYESYIAEKDGILSSLARRAKTLEEALNKLEGVTCNRAEGAMYLFPCLHLPQKAIAAAEAEKTAPDNFYCKRLLKATGIVVVPGSGFRQVPGTWHFRCTILPQEDKIPAIVDRLTAFHQSFMDEFRD
B2: Asp-AT; aspartate aminotransferase 1 (recombinant) (Arabidopsis thaliana) (protein)
chain: MSSWWKSVEPAPKDPILGVTEAFLADPSPEKVNVGVGAYRDDNGKPVVLECVREAEKRLAGSTFMEYLPMGGSAKMVDLTLKLAYGDNSEFIKDKRIAAVQTLSGTGACRLFADFQKRFSPGSQIYIPVPTWSNHHNIWKDAQVPQKTYHYYHPETKGLDFSALMDDVKNAPEGSFFLLHACAHNPTGVDPTEEQWREISQLFKAKKHFAFFDMAYQGFASGDPARDAKSIRIFLEDGHHIGISQSYAKNMGLYGQRVGCLSVLCEDPKQAVAVKSQLQQLARPMYSNPPLHGAQLVSTILEDPELKSLWLKEVKVMADRIIGMRTTLRESLEKLGSPLSWEHVTKQIGMFCYSGLTPEQVDRLTSEYHIYMTRNGRISMAGVTTGNVGYLANAIHEVTKSS

Tests used:
Experiment in all cases: purified protein
purified protein [1] = substrate: O=C(O)CCC(=O)C(=O)O; conditions: HEPES pH 8.0, 50 µM PLP, 30 °C
purified protein [2] = substrate: C[C@H](N)C(=O)O; conditions: fixed 2-oxoglutarate (6 mM), HEPES pH 8.0, 50 µM PLP, 30 °C
purified protein [3] = substrate: N[C@@H](CS)C(=O)O; conditions: fixed 2-oxoglutarate (6 mM), HEPES pH 8.0, 50 µM PLP, 30 °C
purified protein [4] = substrate: N[C@@H](CC(=O)O)C(=O)O; conditions: fixed 2-oxoglutarate (6 mM), HEPES pH 8.0, 50 µM PLP, 30 °C

Protein | Km (purified protein [1]; fixed alanine (9 mM)) [µM] | kcat (purified protein [1]; fixed alanine (9 mM)) [s⁻¹] | Km (purified protein [2]) [µM] | kcat (purified protein [2]) [s⁻¹] | Km (purified protein [3]) [µM] | kcat (purified protein [3]) [s⁻¹] | Km (purified protein [4]) [µM] | kcat (purified protein [4]) [s⁻¹] | Km (purified protein [1]; fixed aspartate (12 mM)) [µM] | kcat (purified protein [1]; fixed aspartate (12 mM)) [s⁻¹]
B1 | 180 ± 10 | 262.91 | 2510 ± 180 | 367.69 | 770 ± 100 | 0.14 |  |  |  | 
B2 |  |  |  |  | 15140 ± 640 | 0.81 | 3330 ± 60 | 232.26 | 460 ± 20 | 180.60
